Measurements reported in patent US20260008815A1, “CYCLIC PEPTIDE OR SALT THEREOF, AND USES THEREOF” (FUJIFILM Corporation, priority 2023, published 2026).
Numbered stars: 1 amine (or outer) side, 2 acyl side, 3 side chain; on linkers, the order of the positions; unused ones are H or OH. Bridge positions count the residues as written; N and C are the ends. Square brackets hold non-standard residues; d marks the D form. Ends that are not written are not given here. acetyl = acetyl (haloacetyl before ring closure) on the side-chain amine, O=C(C[*:1])[*:2]; COCH2 = acetyl group that carries the bridge; hCys = N[C@@H](CCS)C(=O)O

Experiments:
[1] = biological target: T1, Recombinant Human FGFR2 alpha (IIIc) Fc Chimera Protein (Homo sapiens, UniProt P21802); assay: SPR binding affinity of chemically synthesized cyclic peptide to immobilized FGFR; conditions: SPR binding amount at 10 nmol/L cyclic peptide, 25° C., per one molecule of FGFR; chemically synthesized product
T1 construct: Fc (chimera); purchased R&D systems 712-FR-050
Protocol: The binding affinity of the cyclic peptide to FGFR was evaluated using a surface plasmon resonance (SPR) method.
(§1) A CM5 sensor chip (Cytiva, 29149603) was set in Biacore-T200 (manufactured by Cytiva) which is a surface plasmon resonance device, and an HBS-EP buffer (Cytiva, BR100826) was added as a running buffer at a flow rate of 10 μL/min to equilibrate the flow channel. Next, 70 μL of a mixed aqueous solution of 0.2 mol/L 1-(3-dimethylaminopropyl)-3-ethylcarbodiimide (EDC) and 0.05 mol/L N-hydroxysuccinimide (NHS) was added to activate the sensor chip. Then, Recombinant Human FGFR2 alpha (IIIc) Fc Chimera Protein CF (R&D systems, 712-FR-050) prepared at 50 nmol/L in an Acetate 4.5 buffer (Cytiva, BR100350) was added thereto to perform immobilization at about 5000 RU. Thereafter, the blocking treatment was performed with an ethanolamine solution. In addition, in another flow channel of the same sensor chip, blocking treatment was performed immediately after activation without immobilizing FGFR.
(§2) A cyclic peptide diluted to 10 nmol/L using HBS-EP was added to each flow channel of the FGFR-immobilized sensor chip produced above at 25° C. for 10 minutes, then HBS-EP was allowed to flow as a running buffer for 30 minutes, and the binding of the cyclic peptide to FGFR was measured. Thereafter, a regeneration treatment of removing the bound cyclic peptide was performed by repeating the flow of a regeneration liquid in which sodium chloride powder was dissolved in Glysine 1.5 (Cytiva, BR100354) to a final concentration of 0.15 mol/L for 1 minute in each flow channel twice. The binding amount of the cyclic peptide was evaluated from the difference between the measured value of Biacore-T200 in the flow channel in which FGFR was immobilized and the measured value of Biacore-T200 in the flow channel in which FGFR was not immobilated, in a case where a 10 nmol/L cyclic peptide was allowed to flow.
The binding amount of the cyclic peptide evaluated above was normalized to the binding amount of the cyclic peptide molecules per one molecule of FGFR using the molecular weights of the cyclic peptide and FGFR, and the binding affinity to FGFR was evaluated according to the following evaluation criteria. The evaluation result preferably satisfies the evaluation criteria A, B, or C.

[2] = Molecular stability after reducing agent (DTT) treatment, LC; format: physicochemical; conditions: residual rate after DTT aqueous solution, room temperature, 1 hour
Protocol: The molecular stability of the cyclic peptide was evaluated by analyzing an aqueous solution of the cyclic peptide treated with a reducing agent by liquid chromatography (LC).
The reducing agent treatment was performed under the following conditions based on the concentration of glutathione contained in the cells. 25 μL of a 0.2 mg/mL cyclic peptide aqueous solution was prepared, 58.8 μL of a 12.6 mmol/L DTT aqueous solution was added to the aqueous solution, and the mixture was incubated at room temperature for 1 hour to obtain an aqueous solution of the cyclic peptide treated with a reducing agent. The DTT aqueous solution was used by diluting a 1 mol/L (+−)-dithiothreitol (DTT) solution (FUJIFILM Wako Pure Chemical Corporation, 044-33871) with water. The total area of all the peaks in LC/MS of the cyclic peptide before the reducing agent treatment was set to 100%, and the proportion of the total area of all the peaks in LC/MS of the aqueous solution of the cyclic peptide treated with the reducing agent was determined to calculate the residual rate of the cyclic peptide, and the molecular stability was evaluated according to the following evaluation criteria. The evaluation result preferably satisfies the evaluation criteria A, B, or C.
The LC used for the evaluation of molecular stability was set to the following conditions. • LC device: Prominence series (pump, column oven, autosampler, detector) (manufactured by Shimadzu Corporation) • Detector: photodiode array detector (SPD-M20A), measurement wavelength of 280 nm • Column: TSKgel ODS-100V, inner diameter of 4.6 mm×length of 150 mm, particle diameter of 5 μm (manufactured by Tosoh Corporation) • Eluent A: solution containing 0.1% trifluoroacetic acid as solute, and solvent is 100% water • Eluent B: solution containing 0.1% trifluoroacetic acid as solute, and solvent is 100% acetonitrile • Flow rate: 1.0 mL/min • Injection amount: 25 μL • Gradient: 20% to 50%: Eluent B (0 to 15 minutes), 100%: Eluent B (15 minutes) • Column temperature: 40° C.

[3] = biological target: T2, Recombinant Human FGFR2 alpha (IIIc) Fc Chimera Protein, CF (R&D systems, 712-FR-050) (human, UniProt P21802 22-377); assay: SPR, 10 nmol/L peptide over immobilized FGFR2-Fc
T2 construct: bought; not shown: Fc part of the chimera
Protocol: as §1, §2

T2 sequence (P21802 22-377, change not shown): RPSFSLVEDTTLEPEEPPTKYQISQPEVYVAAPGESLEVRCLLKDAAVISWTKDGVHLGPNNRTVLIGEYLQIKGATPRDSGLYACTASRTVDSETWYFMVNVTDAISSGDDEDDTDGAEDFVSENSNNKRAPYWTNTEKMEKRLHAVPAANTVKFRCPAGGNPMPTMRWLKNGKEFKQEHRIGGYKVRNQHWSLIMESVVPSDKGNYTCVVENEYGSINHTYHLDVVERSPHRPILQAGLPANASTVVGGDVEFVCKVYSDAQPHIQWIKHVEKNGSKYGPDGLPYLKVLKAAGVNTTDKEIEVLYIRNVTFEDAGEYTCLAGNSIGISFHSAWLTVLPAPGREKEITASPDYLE
T1 sequence (P21802 with tags, fused parts or gaps limits assumed): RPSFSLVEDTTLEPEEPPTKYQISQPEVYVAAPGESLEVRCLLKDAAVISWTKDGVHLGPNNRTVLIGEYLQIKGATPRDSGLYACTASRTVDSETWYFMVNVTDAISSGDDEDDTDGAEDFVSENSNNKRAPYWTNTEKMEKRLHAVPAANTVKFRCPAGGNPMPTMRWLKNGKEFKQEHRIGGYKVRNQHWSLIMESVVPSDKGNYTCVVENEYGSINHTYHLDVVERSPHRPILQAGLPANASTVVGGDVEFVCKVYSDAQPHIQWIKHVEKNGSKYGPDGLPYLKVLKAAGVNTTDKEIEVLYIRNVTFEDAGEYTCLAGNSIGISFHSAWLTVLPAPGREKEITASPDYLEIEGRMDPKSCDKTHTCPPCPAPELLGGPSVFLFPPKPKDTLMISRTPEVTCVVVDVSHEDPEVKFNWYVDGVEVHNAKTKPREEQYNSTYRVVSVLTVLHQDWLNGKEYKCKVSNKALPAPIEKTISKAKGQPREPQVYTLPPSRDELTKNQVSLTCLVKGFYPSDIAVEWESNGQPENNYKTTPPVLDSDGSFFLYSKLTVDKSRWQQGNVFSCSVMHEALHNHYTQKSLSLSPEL

Row | Molecule | Evaluation result of binding affinity to FGFR [1] | Evaluation result of reductive stability [2] | binding amount (SPR, cyclic peptide molecules bound per FGFR molecule at 10 nmol/L peptide) [3]
1 | 439 (QXPQNFINPVQWRYFQHYXNKKK; not fully specified; Description of Artificial Sequence: Cyclic peptide) [compound 439] | A (The binding amount is 0.7 molecules of the cyclic peptide/one molecule of FGFR or more.) | A (The residual rate of cyclic peptide is 90% or more.) | 
2 | 443 (YXEENYLDPEQYQYFIYFXYKKK; not fully specified; Description of Artificial Sequence: Cyclic peptide) [compound 443] | A (The binding amount is 0.7 molecules of the cyclic peptide/one molecule of FGFR or more.) | A (The residual rate of cyclic peptide is 90% or more.) | 
3 | 449 (YXEENYLDPEQYQYFIYFXYKKK; not fully specified; Description of Artificial Sequence: Cyclic peptide) [compound 449] | A (The binding amount is 0.7 molecules of the cyclic peptide/one molecule of FGFR or more.) | A (The residual rate of cyclic peptide is 90% or more.) | 
4 | 441 (QXPQNFINPVQWRYFQHYXNKKK; not fully specified; Description of Artificial Sequence: Cyclic peptide) [compound 441] | A (The binding amount is 0.7 molecules of the cyclic peptide/one molecule of FGFR or more.) | A (The residual rate of cyclic peptide is 90% or more.) | 
5 | 444 (YXEENYLDPEQYQYFIYFXYKKK; not fully specified; Description of Artificial Sequence: Cyclic peptide) [compound 444] | B (The binding amount is 0.5 molecules of the cyclic peptide/one molecule of FGFR or more and less than 0.7 molecules of cyclic peptide/one molecule of FGFR.) | A (The residual rate of cyclic peptide is 90% or more.) | 
6 | 446 (YKEENYLDPEQYQYFIYFXYKKK; Description of Artificial Sequence: Cyclic peptide) [compound 446] | A (The binding amount is 0.7 molecules of the cyclic peptide/one molecule of FGFR or more.) | A (The residual rate of cyclic peptide is 90% or more.) | 
7 | 437 (QK(COCH2)PQNFINPVQWRYFQHY[hCys]NKKK; thioether 2-19 via acetyl) [compound 437] | A (The binding amount is 0.7 molecules of the cyclic peptide/one molecule of FGFR or more.) | A (The residual rate of cyclic peptide is 90% or more.) | 
8 | 438 (QK(COCH2)PQNFINPVQWRYFQHY[hCys]NKKK; thioether 2-19 via acetyl) [compound 438] | A (The binding amount is 0.7 molecules of the cyclic peptide/one molecule of FGFR or more.) | A (The residual rate of cyclic peptide is 90% or more.) | 
9 | 447 (YXEENYLDPEQYQYFIYFXYKKK; not fully specified; Description of Artificial Sequence: Cyclic peptide) [compound 447] | A (The binding amount is 0.7 molecules of the cyclic peptide/one molecule of FGFR or more.) | A (The residual rate of cyclic peptide is 90% or more.) | 
10 | 448 (YXEENYLDPEQYQYFIYFXYKKK; not fully specified; Description of Artificial Sequence: Cyclic peptide) [compound 448] | A (The binding amount is 0.7 molecules of the cyclic peptide/one molecule of FGFR or more.) | A (The residual rate of cyclic peptide is 90% or more.) | 
11 | 434 (QXPQNFINPVQWRYFQHYXNKKK; not fully specified; Description of Artificial Sequence: Cyclic peptide) [compound 434] | A (The binding amount is 0.7 molecules of the cyclic peptide/one molecule of FGFR or more.) | A (The residual rate of cyclic peptide is 90% or more.) | 
12 | 453 (YXHENYLDPEQYQYFHYFKKKK; Description of Artificial Sequence: Cyclic peptide) [compound 453] | C (The binding amount is 0.1 molecules of cyclic peptide/one molecule of FGFR or more and less than 0.5 molecules of cyclic peptide/one molecule of FGFR.) | A (The residual rate of cyclic peptide is 90% or more.) | 
13 | 452 (YXHENYLDPEQYQYFHYFKYKKK; Description of Artificial Sequence: Cyclic peptide) [compound 452] | A (The binding amount is 0.7 molecules of the cyclic peptide/one molecule of FGFR or more.) | A (The residual rate of cyclic peptide is 90% or more.) | 
14 | 451 (YCEENYLDPEQYQYFIYFCYKKK; disulfide 2-19) [compound 451] | D (The binding amount is less than 0.1 molecules of the cyclic peptide/one molecule of FGFR.) | D (The residual rate of the cyclic peptide is less than 50%) | 
15 | 442 (YXEENYLDPEQYQYFIYFKYKKK; not fully specified; Description of Artificial Sequence: Cyclic peptide) [compound 442] | A (The binding amount is 0.7 molecules of the cyclic peptide/one molecule of FGFR or more.) | A (The residual rate of cyclic peptide is 90% or more.) | 
16 | 433 (Q[hCys]PQNFINPVQWRYFQHYK(COCH2)NKKK; thioether 2-19 via acetyl) [compound 433] | A (The binding amount is 0.7 molecules of the cyclic peptide/one molecule of FGFR or more.) | A (The residual rate of cyclic peptide is 90% or more.) | 
17 | YXEENYLDPEQYQYFIYFXYKKK (not fully specified; thioether ring (Dab(acetyl))-(Hcy), chemically synthesized) [cyclic peptide SEQ ID NO: 448] |  |  | ≥ 0.7 moleculesofthecyclicpeptide/onemoleculeoffgfr
18 | YXEENYLDPEQYQYFIYFXYKKK (not fully specified; thioether ring (Dap(acetyl))-(Hcy), chemically synthesized) [cyclic peptide SEQ ID NO: 449] |  |  | ≥ 0.7 moleculesofthecyclicpeptide/onemoleculeoffgfr
19 | YCEENYLDPEQYQYFIYFCYKKK (disulfide 2-19 (inferred), chemically synthesized) [cyclic peptide SEQ ID NO: 451] |  |  | < 0.1 moleculesofthecyclicpeptide/onemoleculeoffgfr
20 | YXHENYLDPEQYQYFHYFKKKK (thioether ring (Hcy)-(K(acetyl)), chemically synthesized) [cyclic peptide SEQ ID NO: 453] |  |  | 0.1 to 0.5 moleculesofthecyclicpeptide/onemoleculeoffgfr
21 | XHENYLDPEQYQYFHYFKYKKK (thioether ring (Hcy)-(K(acetyl)), chemically synthesized) [cyclic peptide SEQ ID NO: 454] |  |  | 0.1 to 0.5 moleculesofthecyclicpeptide/onemoleculeoffgfr
